Source: patent publication US9056102B2, “VEGF-activated trail ligands” (The Regents of the University of California, priority 2005, dated 2015)
Entries after “also recorded” stand apart in the source; their conditions may differ.

Columns and labels:
[1] = test system: U87MG human glioblastoma cells; assay: Potentiation of R2FasL by chemotherapeutic agents, resazurin cell viability assay; assay type: cell-based; conditions: 72 hours drug (Bis VIII 1 μM, camptothecin 20 nM, etoposide 5 μM), then R2FasL 10 μL/well for 40 hours
Protocol: U87MG human glioblastoma cells were plated in 96-well plates in 100 μL of complete medium with 10% fetal calf serum at 25,000 cells/well. Forty-eight hours later cells were treated with either bisindolylmaleimide VIII (Bis VIII, final concentration 1 μM), camptothecin (final concentration 20 nM), etoposide (final concentration 5 μM), or DMSO vehicle (1 μL/well). Bis VIII, camptothecin, and etoposide (all from Biomol) were dissolved in DMSO and added at 1 μL/well. After 72 hours of drug exposure, cells were treated with FLAG antibody affinity-purified R2FasL solution (10 μL/well), and incubated for an additional 40 hours. Cell viability and cytotoxicity were assayed using the resazurin assay and the LDG release assay, respectively, as described above.

[2] = test system: Jurkat cells; assay: Jurkat cell killing, viable cell counting after trypan blue staining; assay type: cell-based, human
Protocol: (§1) Apoptosis and cytotoxicity was assayed by three assays: cell counting, FACS analysis of Annexin V positive cells, and LDH (lactate dehydrogenase) release. For cell counting of Jurkat cells, 100 uL of cell suspension was mixed with an equal volume of Trypan blue stain (0.4%), and kept at room temperature for 2 minutes. Live cells were counted using a hemocytometer in triplicate. Mean number of cells/visual field and SEM were calculated using InStat statistical software. For FACS analysis, the Annexin-V-Fluos kit from Roche was used according to the manufacturer's protocol. […] The percent of the cell population that was apototic (Annexin-V-positive and propidium iodide-negative) was determined. […] 25 μL of supernatant in triplicate was mixed with LDH detection reagent, and LDH activity quantified by measuring absorbance at 492 nm. Mean and SEM was calculated using InStat statistical software.
Jurkat cells were plated in 24-well plates (500,000 cells in 500 μl/well) and were treated with increasing volumes of conditioned medium obtained from Cos-7 cells transfected either with either control plasmid pSV/Neo or plasmid pBJ/FlkFasL. […] Thirty-two hours later viable cells were counted after trypan blue staining. […]

[3] = test system: Jurkat cells; assay: Induction of apoptosis by FACS analysis of Annexin V-positive/propidium iodide-negative cells; assay type: cell-based, human
Protocol: as §1
Jurkat cells were plated in 24-well plates (500,000 cells in 500 μl/well) and were treated with either 1 μL/well or 5 μL/well of conditioned medium obtained from Cos-7 cells transfected either with control plasmid pSV/Neo or plasmid pBJ/FlkFasL. […] Induction of apoptosis was assessed by FACS analysis of FITC-Annexin V-positive/propidium-iodide negative cells.

[4] = test system: T-47D human breast cancer cells; assay: Cell death in breast cancer cells, photographed 24 hours after treatment; assay type: cell-based; conditions: 25 μL conditioned medium plus 2 nM VEGF-165, 24 hours
Protocol: T-47D human breast cancer cells were plated in 24-well plates (500,000 cells in 500 μl/well) and grown to confluence. Cells were treated with 25 μL/well of conditioned medium from Cos-7 cells transfected either with control plasmid pSV/Neo or plasmid FlkFasL. Cells were also treated with 2 nM VEGF-165 or without. Cells were photographed 24 hours after treatment.

[5] = test system: T-47D human breast cancer cells; assay: LDH release cytotoxicity assay in breast cancer cells; assay type: cell-based
Protocol: Apoptosis and cytotoxicity was assayed by three assays: cell counting, FACS analysis of Annexin V positive cells, and LDH (lactate dehydrogenase) release. For cell counting of Jurkat cells, 100 uL of cell suspension was mixed with an equal volume of Trypan blue stain (0.4%), and kept at room temperature for 2 minutes. Live cells were counted using a hemocytometer in triplicate. Mean number of cells/visual field and SEM were calculated using InStat statistical software. For FACS analysis, the Annexin-V-Fluos kit from Roche was used according to the manufacturer's protocol. Briefly, after treatment with FlkFasL or control conditioned medium±VEGF-165 (2 nM, from Peprotech), Jurkat cells were pelleted and resuspended in 100 μL of Annexin-V-Fluos labeling solution (FITC-Annexin V plus propidium iodide) for 15 minutes at room temperature. FACS analysis was performed on a Becton Dickinson FACSCalibur™ using CellQuest Software, with gating to distinguish Annexin V-positive (apoptotic) versus negative cells, and propidium iodide-positive (i.e. necrotic) versus negative cells. The percent of the cell population that was apototic (Annexin-V-positive and propidium iodide-negative) was determined. […] 25 μL of supernatant in triplicate was mixed with LDH detection reagent, and LDH activity quantified by measuring absorbance at 492 nm. Mean and SEM was calculated using InStat statistical software. […]

[6] = test system: Jurkat E6.1 human T cells; assay: Jurkat cell viability, resazurin (AlamarBlue) assay; assay type: cell-based
Protocol: Conditioned medium (0.001, 0.01, 0.1, 1, or 10 μL) from Cos7 cells transfected with pFLAG/R1[D2]FasL vector was added in the absence or presence of rhVEGF-165 (final concentration 2 nM). Twenty-two hours later cell viability was assayed using the resazurin assay (AlamarBlue reagent from BioSource). Conversion of AlamarBlue substrate to product by viable cells was determined by adding 20 μL of AlamarBlue to each well and measuring absorbance at 540 nm and […]. Calculation of % conversion of substrate to product was performed according to the manufacturer's protocol.
To investigate which growth factors activate R1[D2]FasL the following experiment was performed. […] All growth factors were used at a final concentration of 10 nM, and were from Peprotech or R&D Systems. Nineteen hours later cell viability was assayed using the resazurin assay as described above.
In a similar experiment, the concentration of the growth factors tested was varied. […] Conditioned medium from Cos7 cells transfected with either pFLAG/R2FasL vector or empty pFLAG vector was added (1 μL/well), in the absence or presence of rhVEGF-165 or rmVEGF-165 at the final concentrations of 0.001, 0.01, 0.1, 1, and 10 nM. Eighteen hours later cell viability was assayed using the resazurin assay as described herein.
To determine the ED50 for hVEGF-165 on R1[D2]FasL the following experiment was performed. […] Conditioned medium from Cos7 cells transfected with pFLAG/R1[D2]FasL vector was added (2 μL/well), in the absence or presence of rhVEGF-165 at 0, 0.01, 0.1, 1, 10, 100, 1,000, or 10,000 nM. Nineteen hours later cell viability was assayed using the resazurin assay as described above.
In a similar experiment the ED50 for hVEGF-165 on R2FasL was determined. […] Conditioned medium from Cos7 cells transfected with pFLAG/R2FasL vector was added in the volumes indicated, in the absence or presence of rhVEGF-165 at the final concentrations of […], 0.2 and 2 nM. Eighteen hours later cell viability was assayed using the resazurin assay. The ED50 for rhVEGF-165 was between 20 pM and 200 pM (FIG. 21B).

Cn1cc(C2=C(c3cn(CCCN)c4ccccc34)C(=O)NC2=O)c2ccccc21 [BisVIII, bisindolylmaleimide VIII]
potentiation of R2FasL apoptotic activity (cell viability) [1]: Potentiation of R2FasL apoptotic activity

COc1cc([C@@H]2c3cc4c(cc3[C@@H](O[C@@H]3O[C@@H]5CO[C@@H](C)O[C@H]5[C@H](O)[C@H]3O)[C@H]3COC(=O)[C@H]23)OCO4)cc(OC)c1O [etoposide]
potentiation of R2FasL apoptotic activity (cell viability) [1]: Potentiation of R2FasL apoptotic activity

B1: FlkFasL: Fusion of mouse Flk-1 (VEGFR-2) signal sequence and Ig-like domains 1-3, linker, human FasL amino acids 139-281; SEQ ID NO:22 (protein)
chain: MESKALLAVALWFCVETRAASVGLPGDFLHPPKLSTQKDILTILANTTLQITCRGQRDLDWLWPNAQRDSEERVLVTECGGGDSIFCKTLTIPRVVGNDTGAYKCSYRDVDIASTVYVYVRDYRSPFIASVSDQHGIVYITENKNKTVVIPCRGSISNLNVSLCARYPEKRFVPDGNRISWDSEIGFTLPSYMISYAGMVFCEAKINDETYQSIMYIVVVVGYRIYDVILSPPHEIELSAGEKLVLNCTARTELNVGLDFTWHSPPSKSHHKKIVNRDVKPFPGTVAKMFLSTLTIESVTKSDQGEYTCVASSGRMIKRNRTFVRVHTKPFIAFGSARGTSEKKELRKVAHLTGKSNSRSMPLEWEDTYGIVLLSGVKYKKGGLVINETGLYFVYSKVYFRGQSCNNLPLSHKVYMRNSKYPQDLVMMEGKMMSYCTTGQMWARSSYLGAVFNLTSADHLYVNVSELSLVNFEESQTFFGLYKL
killing of Jurkat cells as function of VEGF amount ([2]; 25 μL/well conditioned medium, varying amounts of VEGF-165, 24 hours): dependent on the amount of VEGF | killing of Jurkat cells (viable cells per hemocytometer field) ([2]; increasing volumes of Cos-7 conditioned medium, with or without 2 nM VEGF-165, 32 hours): killing of Jurkat cells by FlkFasL in a VEGF-dependent manner | induction of apoptosis (Annexin V-positive/propidium iodide-negative cells) ([3]; 1 or 5 μL conditioned medium, with or without 2 nM VEGF-165, 60 minutes): induction of apoptosis by FlkFasL in a VEGF-dependent manner | induction of apoptosis in the absence of VEGF ([3]; conditioned medium in the absence of VEGF): did not increase apoptotic induction | cell death with exogenous VEGF [4]: drastic increase in cell death; also recorded: drastically increased cell death | cytotoxicity (LDH release) with exogenous VEGF ([5]; 25 μL conditioned medium plus 2 nM VEGF-165, 48 hours): drastic increase in cytotoxicity | cytotoxicity (LDH release), endogenous VEGF only ([5]; 25 μL conditioned medium, no exogenous VEGF, 48 hours): induced cytotoxicity

B2: R1[D2]FasL: Second domain of human VEGFR1 (amino acids 129 to 230) fused via ARGTS linker to hFasL amino acids 139 to 281 (protein)
chain: MSALLILALVGAAVADYKDDDDKLAAASDTGRPFVEMYSEIPEIIHMTEGRELVIPCRVTSPNITVTLKKFPLDTLIPDGKRIIWDSRKGFIISNATYKEIGLLTCEATVNGHLYKTNYLTHRQTNTIIARGTSEKKELRKVAHLTGKSNSRSMPLEWEDTYGIVLLSGVKYKKGGLVINETGLYFVYSKVYFRGQSCNNLPLSHKVYMRNSKYPQDLVMMEGKMMSYCTTGQMWARSSYLGAVFNLTSADHLYVNVSELSLVNFEESQTFFGLYKL
modifications: FLAG tag, preprotrypsin leader
induction of apoptosis (cell viability) ([6]; 0.001-10 μL conditioned medium, absence or presence of 2 nM rhVEGF-165, 22 hours): induces apoptosis in a VEGF-dependent manner | activation by growth factors (cell viability) ([6]; 2 μL/well conditioned medium, rhVEGF-165, rmVEGF-164, rhVEGF-121, rhVEGF-165/rhPlGF-129 heterodimer, rhPlGF-129, each 10 nM, 19 hours): activated by all growth factors tested
